Results as given in paper PMC6440998, “Tunable microsecond dynamics of an allosteric switch regulate the activity of a AAA+ disaggregation machine” (Nature Communications, 2019).

B1: Thermus thermophilus ClpB, wild type (natural protein)
chain: not shown
notes: ClpB of Thermus thermophilus, cloned into pET28b with a six-histidine tag preceded by a TEV site; Homohexamer; also called TT ClpB; WT; source: E. coli BL21 (DE3) pLysS, purified (Ni-NTA, HiPrep DEAE FF)

Columns and labels:
[1] = target: the molecule itself; test: not stated; test of hexamer assembly shown in Supplementary Figs. 3 and 13 and the supplementary section “Validating the structural integrity of ClpB hexamers”; 2 mM ATP for the labeled sample
[2] = target: B1; test: native gel or EMSA + SEC; native gel electrophoresis and gel filtration chromatography of reassembled mixed labeled ClpB and of the WT; details: both partners purified

| Binder | stoichiometry N [1] | binding result [2] |
| --- | --- | --- |
| B1 | 6 | – |
| ClpB S428C-S771C, double-labeled subunit (natural protein, Alexa 488 C5 maleimide (donor) and Alexa 594 C5 maleimide (acceptor) on the cysteines at 428 and 771, ClpB of Thermus thermophilus with two cysteines for the dyes; S428C-S771C is the main construct; also called double-labeled subunits; labeled ClpB; source: E. coli BL21 (DE3) pLysS, purified (Ni-NTA, HiPrep DEAE FF), labeled) not shown | – | binds |
